We go through two substances from publication PMC3078076.

Assay [1] deals with Human HP1β CSD (human). Description: SEC. Background: Size exclusion chromatography separates by hydrodynamic size, large species first.
Assay [2] addresses Human HP1β CSD (human). Description: crystal structure.

In general, stoichiometry N refers to the number of molecules, sites or subunits per partner or assembly.

Regarding Human HP1β CSD (domain or fragment), the stoichiometry N in assay [1] and in assay [2] was 2 in each case.

In assay [1], “Sgo1P1 (from UniProt Q5FBB7 425-443) (peptide)” yielded a stoichiometry N (Sgo1P1 per two HP1β CSD) of 1. This substance also yielded a stoichiometry N (Sgo1P1 peptide per CSD dimer) in assay [2] of 1.
